Data as given in publication PMC11973430, “Rubisco packaging and stoichiometric composition of the native β-carboxysome in Synechococcus elongatus PCC7942” (Plant Physiology, 2024).

Target: T1, Rubisco L8S8 hexadecamer (Form IB ribulose-1,5-bisphosphate carboxylase/oxygenase) of Synechococcus elongatus … (Synechococcus elongatus PCC7942 …, UniProt Q31NB3 1-472; Q31NB2 1-111)
T1 construct: Rubisco large subunit RbcL, Synechococcus elongatus PCC7942, GenBank ABB57456.1; 52.4 kDa; Rubisco small subunit RbcS, Synechococcus elongatus PCC7942, GenBank ABB57457.1; 13.3 kDa; Native holoenzyme imaged inside isolated β-carboxysomes; not separated from the other carboxysome proteins; also called Rubisco complex; Form IB Rubisco; source: endogenous, inside β-carboxysomes purified from Syn7942 …
Experiment: cryo-EM structure; cryoET and subtomogram averaging (emClarity, D4 symmetry) of Rubisco inside isolated native Syn7942 β-carboxysomes (185 carboxysomes) in TEMB buffer (10 mM Tris-HCl pH 8.0, 1 mM EDTA, 10 mM MgCl2, 20 mM NaHCO3); 3.5 Å
Conditions: partners not purified

T1 sequence (Q31NB2 whole entry, chain 2 of 2, other chains not shown): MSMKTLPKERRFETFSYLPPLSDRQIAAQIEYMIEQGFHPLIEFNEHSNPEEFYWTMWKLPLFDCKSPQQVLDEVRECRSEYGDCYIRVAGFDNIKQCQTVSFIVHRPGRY

stoichiometry N: 4 CcmM SSUL domains per Rubisco L8S8
B1: Carboxysome scaffolding (linker) protein CcmM of Synechococcus elongatus PCC7942 (natural protein, UniProt Q03513-2 1-324, looked up)
chain: MSAYNGQGRLSSEVITQVRSLLNQGYRIGTEHADKRRFRTSSWQPCAPIQSTNERQVLSELENCLSEHEGEYVRLLGIDTNTRSRVFEALIQRPDGSVPESLGSQPVAVASGGGRQSSYASVSGNLSAEVVNKVRNLLAQGYRIGTEHADKRRFRTSSWQSCAPIQSSNERQVLAELENCLSEHEGEYVRLLGIDTASRSRVFEALIQDPQGPVGSAKAAAAPVSSATPSSHSYTSNGSSSSDVAGQVRGLLAQGYRISAEVADKRRFQTSSWQSLPALSGQSEATVLPALESILQEHKGKYVRLIGIDPAARRRVAELLIQKP
notes: CcmM, Synechococcus elongatus PCC7942, GenBank AAA27306.1; present in the native β-carboxysome as two isoforms, the full-length 58-kDa CcmM58 and the 35-kDa truncated CcmM35 (three SSUL domains each); Mixture of CcmM35 and CcmM58 in the native carboxysome; also called CcmM35; CcmM58; source: endogenous, inside β-carboxysomes purified from Syn7942 (sucrose gradient ultracentrifugation)
